From patent US20250215104A1 (WALDEN BIOSCIENCES, published 2025) come the findings set out here.

Positions count from the first letter of the chain named.

The chains are these.
B1: suPAR_DB01_A06 (scFv, V domains shown)
VH: QVQLVQSGAEVKKPGASVKVSCKASGYTFTSYYMHWVRQAPGQGLEWMGWIDHENGNTIYDQKFQGRVTMTRDTSTSTVYMELSSLRSEDTAVYYCARGYDVDWFVYWGQGTLVTVSS
VL: DIQMTQSPSSLSASVGDRVTITCRARQSVSYMYWYQQKPGKAPKLLIYRTSNLASGVPSRFSGSGSGTDFTLTISSLQPEDFATYYCQQYHSYPPTFGGGTKVEIK
notes: screened as scFv
B2: suPAR_DB01_D03 (scFv, V domains shown)
VH: B1 VH with Y27G, S31N
VL: B1 VL with R24S, Q27S
notes: screened as scFv
B3: suPAR_DB01_B05 (scFv, V domains shown)
VH: B1 VH with S31N, H53P
VL: B1 VL with R26S, Q27S
notes: screened as scFv
B4: suPAR_DB01_E07 (scFv, V domains shown)
VH: B1 VH
VL: B1 VL with R26S, Q27S
notes: screened as scFv
B5: suPAR_DB01_D12 (scFv, V domains shown)
VH: B1 VH with H53P, N57S
VL: B1 VL with R24S, Q27S
notes: screened as scFv
B6: suPAR_DB01_D01 (scFv, V domains shown)
VH: B1 VH with S31G, N57S, D61A
VL: B1 VL with R24S, Q27S
notes: screened as scFv
B7: suPAR_DB01_E04 (scFv, V domains shown)
VH: B1 VH with S31G
VL: B1 VL with R24S
notes: screened as scFv
B8: suPAR_DB01_B11 (scFv, V domains shown)
VH: B1 VH with S31D, N57S, I59S
VL: B1 VL with R24S, Q27S
notes: screened as scFv
B9: suPAR_DB01_A10 (scFv, V domains shown)
VH: B1 VH with T30S, S31N
VL: B1 VL with R24S, Q27S
notes: screened as scFv
B10: suPAR_DB01_D10 (scFv, V domains shown)
VH: B1 VH with S31G, N57S, I59S
VL: B1 VL with R24S
notes: screened as scFv
B11: suPAR_DB01_E01 (scFv, V domains shown)
VH: B1 VH with T28S, H53P, N55G, N57S
VL: B1 VL with R24S, Q27S
notes: screened as scFv
B12: suPAR_DB01_B03 (scFv, V domains shown)
VH: B1 VH with Y27F, T28N, F29I, T30K, S31D, M34I, H53P, D61A
VL: B1 VL with R26S, Q27S
notes: screened as scFv
B13: suPAR_DB01_B06 (scFv, V domains shown)
VH: B1 VH with S31D
VL: B1 VL with Q27S
notes: screened as scFv
B14: suPAR_DB01_C11 (scFv, V domains shown)
VH: B1 VH with Y27G, H53P, N57S
VL: B1 VL with R24S, Q27S
notes: screened as scFv
B15: suPAR_DB01_C10 (scFv, V domains shown)
VH: B1 VH with S31N, H53P, D61A
VL: B1 VL with Q27S, V29I
notes: screened as scFv
B16: suPAR_DB01_C07 (scFv, V domains shown)
VH: B1 VH with N57S, I59S
VL: B1 VL
notes: screened as scFv
B17: suPAR_DB01_D04 (scFv, V domains shown)
VH: B1 VH with N57S, D61A
VL: B1 VL with R24S, Q27S
notes: screened as scFv
B18: suPAR_DB01_E06 (scFv, V domains shown)
VH: B1 VH with T30I, S31N, H53P
VL: B1 VL with R24S, Q27S
notes: screened as scFv
B19: suPAR_DB01_B04 (scFv, V domains shown)
VH: B1 VH
VL: B1 VL with R24S, R26S, Q27S
notes: screened as scFv
B20: suPAR_DB01_C04 (scFv, V domains shown)
VH: B1 VH with S31G, H53P, N55G, N57S
VL: B1 VL with R24S, Q27S
notes: screened as scFv
B21: suPAR_DB01_B10 (scFv, V domains shown)
VH: B1 VH with T30S, H53P, N57S
VL: B1 VL with R24S, Y31S
notes: screened as scFv
B22: suPAR_DB01_D09 (scFv, V domains shown)
VH: B1 VH with S31N, E54S, D61A
VL: B1 VL with R24S, Q27S
notes: screened as scFv
B23: suPAR_DB01_A12 (scFv, V domains shown)
VH: B1 VH with S31G, H53P, N55G, D61A
VL: B1 VL with R24S, Q27S
notes: screened as scFv
B24: suPAR_DB01_B02 (scFv, V domains shown)
VH: B1 VH with S31N
VL: B1 VL with R24S, Q27S
notes: screened as scFv
B25: suPAR_DB01_E03 (scFv, V domains shown)
VH: B1 VH with S31D, I59S, D61A
VL: B1 VL with R24S, Q27S
notes: screened as scFv
B26: suPAR_DB01_B08 (scFv, V domains shown)
VH: B1 VH with S31G, H53P, N57S
VL: B1 VL with R24S, Q27S
notes: screened as scFv
B27: suPAR_DB01_D05 (scFv, V domains shown)
VH: B1 VH with S31G, Y32S, M34V
VL: B1 VL with R24S
notes: screened as scFv
B28: suPAR_DB01_C12 (scFv, V domains shown)
VH: B1 VH with Y27D
VL: B1 VL with R24S, Q27S
notes: screened as scFv
B29: suPAR_DB01_B12 (scFv, V domains shown)
VH: B1 VH with H53P
VL: B1 VL with R24S, Q27S
notes: screened as scFv
B30: suPAR_DB01_B01 (scFv, V domains shown)
VH: B1 VH with S31D
VL: B1 VL with R24S, R26S
notes: screened as scFv
B31: suPAR_DB01_C09 (scFv, V domains shown)
VH: B1 VH with Y27F, T28N, F29I, T30K, S31D, M34I, H53P, D61A
VL: B1 VL with R24S, Q27S
notes: screened as scFv
B32: suPAR_DB01_E02 (scFv, V domains shown)
VH: B1 VH with H53P, N55G, N57S
VL: B1 VL with R24S, Q27S
notes: screened as scFv
B33: suPAR_DB01_D08 (scFv, V domains shown)
VH: B1 VH with N57S, D61A
VL: B1 VL with R26S, Q27S
notes: screened as scFv
B34: suPAR_DB01_C08 (scFv, V domains shown)
VH: B1 VH with S31G, D61A
VL: B1 VL with R24S, Q27S
notes: screened as scFv
B35: suPAR_DB01_A11 (scFv, V domains shown)
VH: B1 VH with S31N
VL: B1 VL with R24S, R26S
notes: screened as scFv
B36: suPAR_DB01_D02 (scFv, V domains shown)
VH: B1 VH with H53P, E54N, N55T, N57D, I59N, D61A
VL: B1 VL with Q27S
notes: screened as scFv
B37: suPAR_DB01_C02 (scFv, V domains shown)
VH: B1 VH with T30N, S31T, H53P
VL: B1 VL with R24S, R26S, Q27S, N52S, A54Q
notes: screened as scFv
B38: suPAR_DB01_A07 (scFv, V domains shown)
VH: B1 VH with Y27G, N57S, I59S
VL: B1 VL with R24S, Q27S
notes: screened as scFv

As usually defined, the koff is the first-order rate constant of dissociation.

T2 sequence (Q03405 23-303 limits assumed): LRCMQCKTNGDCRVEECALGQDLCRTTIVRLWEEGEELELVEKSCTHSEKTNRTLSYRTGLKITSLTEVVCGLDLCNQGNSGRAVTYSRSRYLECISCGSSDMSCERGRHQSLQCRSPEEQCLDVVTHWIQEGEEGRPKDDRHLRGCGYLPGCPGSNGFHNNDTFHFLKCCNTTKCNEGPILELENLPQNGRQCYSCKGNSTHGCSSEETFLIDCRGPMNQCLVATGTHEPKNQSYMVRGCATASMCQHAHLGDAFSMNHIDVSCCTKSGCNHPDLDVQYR

In the first assay the target is T1, cynomolgus soluble urokinase plasminogen activator receptor (suPAR) (cynomolgus, UniProt Q9GK78 23-303, limits assumed).
T1 construct: Target antigen of the off-rate screen; also called cynomolgus uPAR; cynomolgus suPAR
T1 sequence (Q9GK78 23-303 limits assumed): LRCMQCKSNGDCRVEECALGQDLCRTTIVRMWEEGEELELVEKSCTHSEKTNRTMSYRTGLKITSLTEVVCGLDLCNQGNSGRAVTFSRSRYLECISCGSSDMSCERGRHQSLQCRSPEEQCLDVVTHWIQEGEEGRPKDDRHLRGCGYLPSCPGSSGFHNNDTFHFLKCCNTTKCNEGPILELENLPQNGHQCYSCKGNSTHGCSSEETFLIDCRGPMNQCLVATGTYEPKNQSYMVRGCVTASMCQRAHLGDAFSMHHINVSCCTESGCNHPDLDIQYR
As to the kind of experiment: off-rate (kdis) screen of scFv clones, biosensor (Octet). A general note: In BLI a coated tip is dipped into the sample, and binding shifts an interference pattern.
Take B1: the koff is 4.27e-07 s⁻¹.
On the same count and under the same terms, to B2 belongs 0.000203 s⁻¹; to B3, 0.000181 s⁻¹; to B4, 6.72e-05 s⁻¹.
As for B5, the koff worked out at 0.000232 s⁻¹.
On the same count and under the same terms, under B6 stands 0.000369 s⁻¹.
B7 yielded a koff of 0.00031 s⁻¹.
Still for that read-out and setting: under B8 stands 8.79e-05 s⁻¹.
Turning to B9, the koff was determined as 0.000299 s⁻¹.
In turn, B10 displayed a koff of 0.000148 s⁻¹.
Still for that read-out and setting: under B11 stands 0.000254 s⁻¹; under B12, 3.5e-07 s⁻¹; under B13, 5.62e-07 s⁻¹.
B14 showed an off-rate constant (koff) of 8.96e-05 s⁻¹.
On the same count and under the same terms, to B15 belongs 0.000266 s⁻¹; to B16, 2.66e-05 s⁻¹; to B17, 2.53e-05 s⁻¹.
Still for that read-out and setting: under B18 stands 0.000218 s⁻¹; under B19, 8.48e-05 s⁻¹.
The molecule B20 yielded a dissociation rate constant (koff) of 0.000303 s⁻¹.
In the case of B21, the koff came to 0.00108 s⁻¹.
B22 yielded a koff of 0.000506 s⁻¹.
With B23, the koff worked out at 0.000142 s⁻¹.
Same read-out and setting: to B24 belongs 0.000177 s⁻¹.
B25 registered a koff of 5.44e-05 s⁻¹.
Same read-out and setting: to B26 belongs 0.000211 s⁻¹.
On to B27, for which the off-rate constant (koff) was determined as 0.000419 s⁻¹.
Same read-out and setting: to B28 belongs 0.000105 s⁻¹.
Same read-out and setting: to B29 belongs 0.000238 s⁻¹.
On the same count and under the same terms, to B30 belongs 4.88e-07 s⁻¹.
Take B31: the koff was 0.000203 s⁻¹.
Still for that read-out and setting: to B32 belongs 0.000347 s⁻¹.
B33: the koff is 7.01e-07 s⁻¹.
Same read-out and setting: under B34 stands 0.00042 s⁻¹.
B35: the off-rate constant (koff) was found to be 0.000479 s⁻¹.
On the same count and under the same terms, under B36 stands 0.000343 s⁻¹.
The same measure, in the same setting: under B37 stands 0.000234 s⁻¹; under B38, 0.00156 s⁻¹.

Another assay concerns the target T2, human soluble urokinase plasminogen activator receptor (suPAR) (human, UniProt Q03405 23-303, limits assumed).
T2 construct: Target antigen of the off-rate screen; also called hsuPAR; human suPAR
The assay is described as above.
As to B1, the dissociation rate constant (koff) was found to be 0.00253 s⁻¹.
On the same count and under the same terms, to B2 belongs 0.00362 s⁻¹; to B3, 0.00407 s⁻¹; to B4, 0.00228 s⁻¹.
The molecule B5 displayed a koff of 0.00382 s⁻¹.
In turn, B6 gave an off-rate constant (koff) of 0.000531 s⁻¹.
Still for that read-out and setting: under B7 stands 0.0014 s⁻¹.
B8 registered a koff of 0.00273 s⁻¹.
The same measure, in the same setting: under B9 stands 0.00194 s⁻¹; under B10, 0.00147 s⁻¹; under B11, 0.00474 s⁻¹.
Turning to B12, the koff was found to be 0.00329 s⁻¹.
Same read-out and setting: under B13 stands 0.00348 s⁻¹; under B14, 0.00226 s⁻¹; under B15, 0.00363 s⁻¹.
Still for that read-out and setting: to B16 belongs 0.00164 s⁻¹; to B17, 0.000872 s⁻¹.
The same measure, in the same setting: under B18 stands 0.00224 s⁻¹.
Consider B19, for which the koff came out at 0.00206 s⁻¹.
On the same count and under the same terms, under B20 stands 0.00403 s⁻¹.
In turn, B21 yielded an off-rate constant (koff) of 0.00105 s⁻¹.
Consider B22, for which the koff is 0.00109 s⁻¹.
For B23, the koff is 0.00128 s⁻¹.
In turn, B24 showed a koff of 0.00142 s⁻¹.
Still for that read-out and setting: under B25 stands 0.00402 s⁻¹; under B26, 0.00371 s⁻¹.
Still for that read-out and setting: under B27 stands 0.00224 s⁻¹; under B28, 0.00493 s⁻¹; under B29, 0.00298 s⁻¹.
As to B30, the koff came to 0.0028 s⁻¹.
Still for that read-out and setting: to B31 belongs 0.00476 s⁻¹.
B32 showed a koff of 0.00469 s⁻¹.
Same read-out and setting: to B33 belongs 0.000666 s⁻¹; to B34, 0.0013 s⁻¹.
Turning to B35, the koff was determined as 0.0015 s⁻¹.
Molecule B36 showed a koff of 0.00425 s⁻¹.
The molecule B37 came in with a koff of 0.00353 s⁻¹.
Turning to B38, the koff was 0.00571 s⁻¹.
